Reference: PMC5238629, “Streptavidin-coated gold nanoparticles: critical role of oligonucleotides on stability and fractal aggregation”

Target: streptavidin (Streptomyces avidinii, UniProt P22629 25-183)
Test: SPR; binding through the 3'-biotin, not the DNA sequence; 10 uM BiotinDNA in water gave about 90 RU; about 70 RU lost on displacement by free biotin (0.01-10.24 mM); SPR: 10 uM BiotinDNA in water, 10 uL/min, immobilized streptavidin; displacement by free biotin in water; temperature and pH not given
Details: protein: commercial; chain copies: 4; single strand

Sequence of streptavidin (P22629 25-183): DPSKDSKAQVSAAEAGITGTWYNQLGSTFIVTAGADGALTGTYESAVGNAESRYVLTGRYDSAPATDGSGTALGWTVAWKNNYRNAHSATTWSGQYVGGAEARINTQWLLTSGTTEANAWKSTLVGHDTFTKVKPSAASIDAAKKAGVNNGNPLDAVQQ

AGCAGCCTAAG (ssDNA, 3'-biotin) [BiotinDNA]: binds.
